The values that follow are results of earlier work, collected in article PMC7221163.

This series has as its target insulin receptor (HIR) (Homo sapiens) (UniProt P06213). In words: radioreceptor assay.

Chain of insulin (P01308 90-110): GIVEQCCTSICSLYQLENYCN

Turning to insulin (from UniProt P01308), the Kd was 1.2 nM.
